The source of these data is patent US20170327597A1.

The target in the assay is Z-domain (an engineered analogue of the IgG-binding domain of protein A). The experiment in a line: isothermal titration calorimetry, Z-domain injected into IgG. In general terms: ITC needs no label: the signal is the heat of the interaction.

Regarding mmIgG2b-P307T-Q309L-K409R (antibody), the fold tighter binding than mmIgG2b-F405L is 5 fold.
